Reference: US20230357367A1
Numbering of substitutions follows the chain as printed. Where two headings read alike, the source gives them in different places.

B1: AB-1 Fab (Fab, V domains shown)
VH: EVQLVESGAEVKKPGESLKISCKGSGYTFTRYWIGWVRQMPGKGLEWMGIIYPGDSDVRYSPSFQGHVTISADKSISTAYLQWNSLKASDTAMYYCARLPQYCSKGVCYRWFDPWGQGTLVTVSS
VL: EIVLTQSPSSVSASVGDRVTITCRASQGISSWLAWYQQKPGKAPKLLIYAASSLQSGVPSRFSGSGSGTDFTLTISSLQPEDFATYYCQQGHSFPYTFGQGTNLEIK
B2: Reference Antibody Fab (Fab, V domains shown)
VH: B1 VH with V58T, K105N, Y109Q
VL: B1 VL with H92N
B3: AB-1 (antibody, V domains shown)
VH: B1 VH
VL: B1 VL
B4: Reference Antibody (antibody, V domains shown)
VH: B1 VH with V58T, K105N, Y109Q
VL: B1 VL with H92N

Key:
[1] = molecular target: T1, SARS-CoV-2 spike S2 peptide 1153-1167, biotinylated (SARS-CoV-2); assay: SPR, Fab over captured biotin-peptide, 25 C
[2] = molecular target: T2, SARS-CoV-2 spike S2 peptide 1149-1163, biotinylated (SARS-CoV-2); assay: SPR, Fab over captured biotin-peptide, 25 C
[3] = molecular target: T3, SARS-CoV-2 spike S2 peptide 1149-1167 (C-terminal end of the stem helix), biotinylated (SARS-CoV-2); assay: SPR, Fab over captured biotin-peptide, 25 C
[4] = molecular target: SARS-CoV-2 spike S2 peptide 1143-1162 (stem helix region), biotinylated (SARS-CoV-2); assay: SPR, Fab over captured biotin-peptide, 25 C
[5] = molecular target: T3, SARS-CoV-2 spike S2 peptide 1149-1167 …; assay: SPR, Fab over captured biotin-peptide, 25 C; remark: listed apart in the source
[6] = molecular target: HIV-1 Env peptide (negative control 15-mer), biotinylated (HIV-1); assay: DELFIA, IgG titrated on captured biotin-peptide; parameters: unit not given beside the values
[7] = molecular target: T1, SARS-CoV-2 spike S2 peptide 1153-1167, …; assay: DELFIA, IgG titrated on captured biotin-peptide; parameters: unit not given beside the values
[8] = molecular target: SARS-CoV-2 spike S2 peptide 1137-1151, biotinylated (SARS-CoV-2); assay: DELFIA, IgG titrated on captured biotin-peptide; parameters: unit not given beside the values
[9] = molecular target: T2, SARS-CoV-2 spike S2 peptide 1149-1163, …; assay: DELFIA, IgG titrated on captured biotin-peptide; parameters: unit not given beside the values
[10] = molecular target: T3, SARS-CoV-2 spike S2 peptide 1149-1167 …; assay: DELFIA, IgG titrated on captured biotin-peptide; parameters: unit not given beside the values
[11] = molecular target: SARS-CoV-2 spike S2 peptide 1157-1171, biotinylated (SARS-CoV-2); assay: DELFIA, IgG titrated on captured biotin-peptide; parameters: unit not given beside the values
[12] = molecular target: SARS-CoV-2 spike S2 peptide 1133-1147, biotinylated (SARS-CoV-2); assay: DELFIA, IgG titrated on captured biotin-peptide; parameters: unit not given beside the values

Binder	Kd [1] [nM]	koff [1] [s⁻¹]	kon [1] [M⁻¹ s⁻¹]	Kd [2] [nM]	koff [2] [s⁻¹]	kon [2] [M⁻¹ s⁻¹]	Kd [3] [nM]	koff [3] [s⁻¹]	kon [3] [M⁻¹ s⁻¹]	Kd [4] [nM]	koff [4] [s⁻¹]	kon [4] [M⁻¹ s⁻¹]	Kd [5] [nM]	AUC [6]	AUC [7]	AUC [8]	AUC [9]	AUC [10]	AUC [11]	AUC [12]
B1	111	0.0774	697000	83.1	0.146	1.76e+06	0.9	0.00241	2.61e+06	12.3	0.037	3e+06	0.925	–	–	–	–	–	–	–
B2	311	0.0535	172000	244	0.0663	272000	5.4	0.00498	929000	–	–	–	5.36	–	–	–	–	–	–	–
B3	–	–	–	–	–	–	–	–	–	–	–	–	–	9860	–	–	–	–	–	–
B4	–	–	–	–	–	–	–	–	–	–	–	–	–	16100	3.12e+06	5050	3.26e+06	3.05e+06	6010	3260
